Measured values as given in US20190016826A1 (Genentech, published 2019).

Experiments:
[1] = target: T1, Protease domain of human HtrA1 (HuHtrA1_PD), residues D161-K379 (human, UniProt F1N152 168-386 (bovine entry)); assay: SPR (BIAcore T100), single-cycle kinetics, biotinylated HuHtrA1_PD captured on streptavidin, Fab in solution
T1 construct: Expressed in E. coli; not shown: thrombin cleavage site between tag and D161
Procedure: (§1) Briefly, series S sensor chip CM5 was activated with EDC and NHS reagents according to the supplier's instructions, and streptavidin (Pierce) was coupled to achieve approximately 2000 response units (RU), followed by blocking unreacted groups with 1M ethanolamine.
(§2) The sensorgrams were recorded and evaluated by BIAcore™ T100 Evaluation Software (version 2.0) after subtraction of reference cell signal. Association rates (kₒₙ) and dissociation rates (koff) were calculated using a simple one-to-one Langmuir binding model. The equilibrium dissociation constant (KD) was calculated as the ratio […] (see Table 1 below).

[2] = target: T2, Full length murine HtrA1 (MuHtrA1) (P24-P480), N-terminal His6 tag (murine, UniProt Q9R118 24-480); assay: SPR (BIAcore T100), single-cycle kinetics, biotinylated murine HtrA1 captured on streptavidin, Fab in solution
T2 construct: Expressed in insect cells
Source text: To determine the binding affinity of HtrA1 antibodies by single cycle kinetics, Surface Plasmon Resonance (SRP) measurement with a BIAcore™ T100 instrument was used. Briefly, a series S sensor chip CM5 was activated with EDC and NHS reagents according to the supplier's instructions, and streptavidin (Pierce) was coupled to achieve approximately 2000 response units (RU), followed by blocking un-reacted groups with 1M ethanolamine.
For kinetics measurements, biotinylated human or murine HtrA1 was first injected at 10 ul/min flow rate to capture approximately 100 RU at 3 different flow cells (FC), except for FC1 (reference), and then 5-fold serial dilutions of anti-HtrA1 Fab in HBS-P buffer (0.01M HEPES pH 7.4, 0.15M NaCl, 0.005% surfactant P20) from low (0.48 nM) to high (300 nM) [5 points] were injected (flow rate: 30 μl/min) one after the other in the same cycle with no regeneration between injections. The sensorgram was recorded and subject to reference and buffer subtraction before evaluation by BIAcore™ T100 Evaluation Software (version 2.0). Association rates (km) and dissociation rates (koff) were calculated using a simple one-to-one Langmuir binding model. The equilibrium dissociation constant (Kd) was calculated as the ratio koff/kₒₙ.

[3] = target: T1, Protease domain of human HtrA1 …; assay: ELISA on plate-coated wild-type HuHtrA1_PD, row WT (Example 7); column head on the sheet reads YW505.94 Fab, legend paragraph 70 says IgG94
Procedure: The mutants were expressed in E. coli and the trimers purified by size exclusion chromatography as described in Example 2. Binding was determined using an ELISA assay, which was conducted using a MAXISORP™ microtiter plate coated with HuHtrA1_PD mutants at 2 μg/ml in PBS for 1 h, followed by blocking with PBST buffer (0.5% BSA and 0.05% Tween 20 in PBS) for 1 h at room temperature. […] The plates were washed with PBT buffer (0.05% Tween 20 in PBS), and HRP-conjugated goat anti-human IgG (H+L) (Invitrogen) was added (1:5000 in PBST buffer) and incubated for 1 h. The plates were washed with PBT buffer and developed by adding tetramethylbenzidine substrate (Kirkegaard and Perry Laboratories, Gaithersburg, Md.). The absorbance at 450 nm was plotted as a function of antibody concentration in solution to determine EC₅₀ values.
Target sequence in this assay (F1N152 other isoform, or with tags, fused parts or gaps): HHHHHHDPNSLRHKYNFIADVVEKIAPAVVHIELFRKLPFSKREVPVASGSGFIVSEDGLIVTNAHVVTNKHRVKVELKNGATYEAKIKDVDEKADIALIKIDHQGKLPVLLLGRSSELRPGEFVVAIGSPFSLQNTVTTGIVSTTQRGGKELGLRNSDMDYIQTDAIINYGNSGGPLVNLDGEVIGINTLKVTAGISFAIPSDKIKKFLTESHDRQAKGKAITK

[4] = target: Protease domain of murine HtrA1 (MuHtrA1_PD) (G156-S367) (murine, UniProt Q9R118 156-367); assay: SPR (BIAcore T100), single-cycle kinetics, biotinylated MuHtrA1_PD captured on streptavidin, Fab in solution
Procedure: as §1, §2

T2 sequence (Q9R118 other isoform, or with tags, fused parts or gaps): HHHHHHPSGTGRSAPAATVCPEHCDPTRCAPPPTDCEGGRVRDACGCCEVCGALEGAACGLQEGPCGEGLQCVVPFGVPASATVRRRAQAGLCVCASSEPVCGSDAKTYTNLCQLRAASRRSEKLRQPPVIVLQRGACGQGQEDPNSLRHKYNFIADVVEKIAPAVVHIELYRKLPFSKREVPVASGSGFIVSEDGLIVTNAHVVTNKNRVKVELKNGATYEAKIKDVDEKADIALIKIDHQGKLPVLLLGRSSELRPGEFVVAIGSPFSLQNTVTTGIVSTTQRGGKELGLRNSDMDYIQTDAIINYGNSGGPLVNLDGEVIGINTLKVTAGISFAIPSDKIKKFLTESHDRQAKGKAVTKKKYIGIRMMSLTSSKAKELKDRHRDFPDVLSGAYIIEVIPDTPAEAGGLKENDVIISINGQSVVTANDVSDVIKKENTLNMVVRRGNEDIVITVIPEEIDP
Protease domain of murine HtrA1 (MuHtrA1_PD) (G156-S367), sequence (Q9R118 other isoform, or with tags, fused parts or gaps): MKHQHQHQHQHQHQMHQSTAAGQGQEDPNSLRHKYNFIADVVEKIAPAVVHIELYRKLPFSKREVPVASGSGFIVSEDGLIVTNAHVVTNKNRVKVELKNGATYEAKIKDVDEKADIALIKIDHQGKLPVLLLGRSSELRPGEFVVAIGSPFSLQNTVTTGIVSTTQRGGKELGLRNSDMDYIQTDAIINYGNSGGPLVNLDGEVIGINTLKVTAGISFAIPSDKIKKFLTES

- Kd [1]: 31.1 nM
- koff [1]: 0.0109 s⁻¹
- kon [1]: 350000 M⁻¹ s⁻¹
- Kd [2]: 28.9 nM
- koff [2]: 0.0129 s⁻¹
- kon [2]: 447000 M⁻¹ s⁻¹
- EC50 [3]: 5.6 nM
- Relative to WT EC50 Fold Decrease [3]: 1 fold
- Kd [4]: 28.9 nM
- koff [4]: 0.0129 s⁻¹
- kon [4]: 450000 M⁻¹ s⁻¹
B1: Fab94 (anti-HtrA1 antibody YW505.94, Fab format) (Fab, V domains shown)
VH: EVQLVESGGGLVQPGGSLRLSCAASGFNISGYYIHWVRQAPGKGLEWVGWIDPYGGDTNYADSVKGRFTISADTSKNTAYLQMNSLRAEDTAVYYCARGTFLTSWGHYFDYWGQGT
VL: DIQMTQSPSSLSASVGDRVTITCRASQDVSTAVAWYQQKPGKAPKLLIYSASFLYSGVPSRFSGSGSGTDFTLTISSLQPEDFATYYCQQSYTTPPTFGQGTKVEIKR
